{"source": "paper PMC4498696", "about": "(PLoS Pathogens, 2015)", "key": {"[1]": {"biological_target": "prefusion-stabilized RSV F ectodomain DS-Cav1 (strain A2), furin-cleaved trimer with foldon, tags removed (respiratory syncytial virus, strain A2 …, UniProt P03420)", "test": "cell-based or functional assay"}, "[2]": {"biological_target": "full-length prefusion F (RSV F residues 1-574 with the DS-Cav1 stabilizing mutations) on the cell surface (Human respiratory syncytial virus A, …, UniProt P03420, stabilised)", "test": "flow cytometry on cells; Expi293 cells expressing RSV F 1-574 DS-Cav1 or its N426D variant; antibodies 1 μg/ml, 1 hour at 4°C; Alexa488 anti-human secondary; normalized to motavizumab binding", "settings": "one partner purified"}, "[3]": {"biological_target": "T1, biotinylated AviTagged prefusion RSV F DS-Cav1, subtype A (strain A2) (Human respiratory syncytial virus A, …, stabilised, biotin (by biotin ligase BirA, on the AviTag))", "T1 construct": "also called Biotinylated DS-Cav1; immobilized prefusion RSV F; source: FreeStyle 293-F, transfected, purified; biotinylated with BirA, Superdex 200; copies: 3 + 3", "test": "Luminex bead binding assay; biotinylated RSV F proteins coupled to avidin-coated MagPlex beads (1 μg per 50,000 beads); IgG in 10-fold serial dilutions 1 μM to 0.1 pM; PE-conjugated anti-human IgG Fc; PBS, 0.1% BSA, 0.05% Tween 20", "settings": "both partners purified"}, "[4]": {"biological_target": "T1, biotinylated AviTagged prefusion RSV F …", "test": "SPR; biotinylated DS-Cav1 immobilised on an SA chip (292 RU), Biacore X100; AM14 Fab 5 nM to 19.5 pM in HBS-EP+; 1:1 binding model", "settings": "both partners purified"}, "[5]": {"biological_target": "T2, biotinylated prefusion RSV F DS-Cav1, subtype B (Human respiratory syncytial virus B, …, UniProt P13843, stabilised, biotin)", "T2 construct": "also called prefusion RSV F derived from B subtype; source: biotinylated protein coupled to avidin-coated beads; copies: 3 + 3", "test": "Luminex bead binding assay", "settings": "both partners purified"}}, "data": [{"binder": "AM14 IgG (antibody, V domains shown) VH: EVQLVESGGGVVQPGRSLRLSCAASGFSFSHYAMHWVRQAPGKGLEWVAVISYDGENTYYADSVKGRFSISRDNSKNTVSLQMNSLRPEDTALYYCARDRIVDDYYYYGMDVWGQGATVTVSS VL: DIQMTQSPSSLSASVGDRVTITCQASQDIKKYLNWYHQKPGKVPELLMHDASNLETGVPSRFSGRGSGTDFTLTISSLQPEDIGTYYCQQYDNLPPLTFGGGTKVEIK", "values": [{"measurement": "IC50 of neutralisation of RSV strain A2 (F of the virus), microneutralization on HEp-2 cells", "setting": "[1]", "value": 0.0124, "unit": "µg/mL"}, {"measurement": "IC50 of neutralisation of RSV strain A Long (F of the virus), microneutralization on HEp-2 cells", "setting": "[1]", "value": 0.0136, "unit": "µg/mL"}, {"measurement": "binding result", "setting": "[2]", "value": "binds"}, {"measurement": "EC50", "setting": "[3]", "value": 0.63, "unit": "nM"}]}, {"binder": "AM14 Fab (Fab, V domains shown) VH: EVQLVESGGGVVQPGRSLRLSCAASGFSFSHYAMHWVRQAPGKGLEWVAVISYDGENTYYADSVKGRFSISRDNSKNTVSLQMNSLRPEDTALYYCARDRIVDDYYYYGMDVWGQGATVTVSS VL: DIQMTQSPSSLSASVGDRVTITCQASQDIKKYLNWYHQKPGKVPELLMHDASNLETGVPSRFSGRGSGTDFTLTISSLQPEDIGTYYCQQYDNLPPLTFGGGTKVEIK", "values": [{"measurement": "Kd", "setting": "[4]", "value": 0.18, "unit": "nM"}, {"measurement": "koff", "setting": "[4]", "value": 0.0034, "unit": "s⁻¹"}, {"measurement": "kon", "setting": "[4]", "value": "1.87e+07", "unit": "M⁻¹ s⁻¹"}]}, {"binder": "motavizumab IgG (antibody, V domains shown) VH: QVTLRESGPALVKPTQTLTLTCTFSGFSLSTAGMSVGWIRQPPGKALEWLADIWWDDKKHYNPSLKDRLTISKDTSKNQVVLKVTNMDPADTATYYCARDMIFNFYFDVWGQGTTVTVSS VL: DIQMTQSPSTLSASVGDRVTITCSASSRVGYMHWYQQKPGKAPKLLIYDTSKLASGVPSRFSGSGSGTEFTLTISSLQPDDFATYYCFQGSGYPFTFGGGTKVEIK", "values": [{"measurement": "binding result", "setting": "[5]", "value": "binds"}]}]}
